From the supplement of paper PMC9732359
± gives the uncertainty stated by the source.

Assay: protein stability index of a GFP-peptide fusion (yeast GPS) (PSI 1-4); higher = more stable; sorted into four equal gates, so the index is relative within each strain
Conditions: doa10∆
Summary of the method: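 Plasmids isolated from each sorting gate were PCR-amplified and Illumina-sequenced, and barcodes assigned the reads to strains. The gates, four of equal size, were set by GFP/Cherry fluorescence ratio on mid-log cultures in leucine-free medium. These cultures were yeast carrying a pooled library of tiled 17-residue yeast protein peptides fused downstream of GFP on a plasmid that also expresses Cherry. The protein stability index is the sum of every gate's read frequency times its gate number.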

| Sequence | protein stability index |
| --- | --- |
| ATVVSTNHSAAASTPTT [PGD1] | 2.91 ± 0.047 |
| AVDNCAICRNHIMEPCI [HRT1] | 2.12 ± 0.071 |
| AVFYTPKELGGLGMISA [PRP8] | 3.43 ± 0.13 |
| AVIESVVNQPTGKIVDV [FAS1] | 2.49 ± 0.097 |
| AVKTAETGYMSRRLMKS [RPO31] | 2.33 ± 0.13 |
| AVLSYYKVDAEGKVTKL [RPS31] | 2.98 ± 0.11 |
| AVNWQDKQGWTPLFHAL [NAS6] | 2.07 ± 0.16 |
| AVPAATPANTNNSTSNA [SWI1] | 2.52 ± 0.06 |
| AVSEKAGHQTSAESWGT [RPL4A] | 2.24 ± 0.086 |
| AWGALITTFVKRSTVPL [YML103C/NUP188] | 2.46 ± 0.07 |
| AYELRTKSKEQLASQLV [RPL35A] | 3.02 ± 0.11 |
| AYSSRFQTPFRRRREGK [RPL5] | 2.9 ± 0.078 |
| CAACHSLDRVAWRTLVG [CYT1] | 1.29 ± 0.052 |
| CAFLLTKIKDAEEDSLL [YJL039C/NUP192] | 3.22 ± 0.11 |
| CAMSGLTADARSMIEHA [PUP2] | 2.3 ± 0.13 |
| CEINYYEILLKILITYG [SRB8] | 1.2 ± 0.047 |
| CFCEDHCDKCSVVLTLQ [RPB3] | 3.12 ± 0.14 |
| CFPQYVNSKQGAINVAN [NNF1] | 2.43 ± 0.29 |
| CIFNFLQQQTPVTIWLF [SME1] | 1.18 ± 0.069 |
| CIKKIMENNEPAMAMED [SRB8] | 3.12 ± 0.072 |
| CILYDADESKMAKLNEC [RET1] | 2.28 ± 0.062 |
| CISLSGVPNYLVQLEPH [SSN2] | 1.85 ± 0.062 |
| CLDQMTEQFCATLNYID [SRB7] | 2.39 ± 0.043 |
| CLENARSQISEKDAKIN [SIR4] | 3.09 ± 0.078 |

| Sequence | protein stability index |
| --- | --- |
| CLSDYTKKISNFNSSLH [YJL039C/NUP192] | 1.56 ± 0.061 |
| CPEEFAESMCQELELPG [SNF5] | 3.25 ± 0.073 |
| CRKCYARLPPRATNCRK [RPL40A] | 3.09 ± 0.23 |
| CRNDAVNWLAYTYLYVR [BRR2] | 3.25 ± 0.063 |
| CRVCSSHTGLIRKYGLN [RPS29A] | 1.5 ± 0.13 |
| CSFAVTKSSLNDLDYDL [YML103C/NUP188] | 3.04 ± 0.1 |
| CSHCGCVYVPNFNASLQ [SNM1] | 3.36 ± 0.11 |
| CTKLAVYYSKRGFKVGL [SRP54] | 2.57 ± 0.14 |
| CTNLTNRTLYELADLPK [GRR1] | 2.93 ± 0.058 |
| CVDDNSKISFIDEDKLY [SSN2] | 3.59 ± 0.25 |
| CVKNHGQSSSIQSSLMT [YCS4] | 2.48 ± 0.17 |
| CVNLSLFDARFERKNPH [SRB8] | 3.2 ± 0.089 |
| CVVLGCERRSTLKLQDT [PRE6] | 1.78 ± 0.074 |
| CWAVRADVHFLDCDGGF [RRP45] | 2.31 ± 0.2 |
| CWLSSVDVNTQKSFEQL [RPN11] | 2.69 ± 0.095 |
| CYLRWQHLRNEHGMNAP [SNF2] | 3.15 ± 0.072 |
| DAENEWNVEKFKKDFEV [RPC40] | 1.39 ± 0.12 |
| DANLNDLPETGFFENIE [IRR1] | 3.13 ± 0.2 |
| DCIIRLPVKWETTTQFK [FAS1] | 1.74 ± 0.083 |
| DDDERVEYNLFTNRSTM [BRN1] | 2.97 ± 0.12 |
| DDDQIESLKKSPIFEVL [ARP9] | 3.16 ± 0.064 |
| DDEKNDKQARKQRTKKE [SNF2] | 3.35 ± 0.3 |
| DDESEQISLNRLIDSMK [RRI1] | 3.03 ± 0.16 |
| DDHNGEVWSVSWNLTGT [YGL100W/SEH1] | 2.73 ± 0.069 |

| Sequence | protein stability index |
| --- | --- |
| DDINKAKAVWENIIIVG [ARP9] | 1.58 ± 0.05 |
| DDISRQVARTNLDGTKA [ROX3] | 3.12 ± 0.096 |
| DDLALPYQHPPNIFPNL [ITC1] | 3.37 ± 0.097 |
| DDSDNVMSSDDENAPVA [PRE10] | 3.12 ± 0.087 |
| DDSSSDNDSLTDLESLS [SIR4] | 3.15 ± 0.058 |
| DDVRDFVIRREVTKGEK [RPS6A] | 3.37 ± 0.14 |
| DDYKDLTCSLYELYINK [IRR1] | 2.74 ± 0.084 |
| DEADKMIDLGFEDQVTN [PRP28] | 3.16 ± 0.098 |
| DEAEGRFEVINNETEQL [SMC1] | 2.07 ± 0.072 |
| DEDKNFPRSRSRSRSSI [ESC2] | 3.13 ± 0.15 |
| DEDWSVRIDKALELDDT [ECM29] | 2.76 ± 0.18 |
| DEEAAGASTVMKTKTIN [PRP8] | 3.34 ± 0.089 |
| DEEETAEGQTNSISDFL [RPN1] | 2.84 ± 0.14 |
| DEKGNEIKVGKQRFQGC [ARP9] | 2.88 ± 0.18 |
| DENAPVATNANATTDQE [PRE10] | 3.09 ± 0.23 |
| DENGDKNDNGGKMNNEV [SWI3] | 3.15 ± 0.084 |
| DENKASATSKPAFSFGA [YJL041W/NSP1] | 2.96 ± 0.063 |
| DENPDLLGYTGIPTDKG [PRE8] | 1.99 ± 0.05 |
| DERSQGEKNFTSAHLKL [SMC4] | 3.17 ± 0.16 |
| DEVNDRSDISDSEGGLF [PCI8] | 3.33 ± 0.28 |
| DFELAVGKVMNKNQETA [RPT6] | 2.37 ± 0.21 |
| DFELEISWCSLSETNGL [PRE10] | 2.92 ± 0.076 |
| DFKAKYCDSMGRPQRKM [RPB5] | 3.44 ± 0.24 |
| DFNQAFEGTDDNEEASV [BRN1] | 3.09 ± 0.14 |

| Sequence | protein stability index |
| --- | --- |
| DFQPTELFDILSTSEDV [IRR1] | 3.04 ± 0.11 |
| DGGKTLRACAANVDQIS [YMR129W/POM152] | 2.15 ± 0.13 |
| DGLGNVVDFTSLPEELK [YMR129W/POM152] | 3.4 ± 0.096 |
| DGLIAPGVRVSGEDVII [RPB2] | 3.05 ± 0.12 |
| DGNNANYIYAGYENGML [RPN14] | 2.73 ± 0.1 |
| DGSKMLKRADYTAVDTA [RPN14] | 3.58 ± 0.12 |
| DGTEYVLSSVREPDFWV [MED6] | 3.49 ± 0.13 |
| DGTSTEKTFLHLPCTIE [RPN8] | 2.7 ± 0.1 |
| DGWVKLTYKSELSKSRA [YMR153W/NUP53] | 1.85 ± 0.062 |
| DHAIVTSPTMPDYYVSI [RPT2] | 2.62 ± 0.11 |
| DHFLSMCQNPMQKPVPF [FAS1] | 2.93 ± 0.18 |
| DHGDGILLIDSEIARTY [RPN9] | 2.73 ± 0.22 |
| DHNGVPFPQYPAGMNET [ITC1] | 1.97 ± 0.12 |
| DIAFVLNNLPYKNEDVT [YCS4] | 2.61 ± 0.053 |
| DICQIDTNAPVAATITS [SRB8] | 2.29 ± 0.063 |
| DIFGANAASGSNSNVTN [YOR098C/NUP1] | 2.11 ± 0.064 |
| DIILGQNIKAPSVKRQK [PRP8] | 2.44 ± 0.081 |
| DIISGKIHSILPVMESL [YJR042W/NUP85] | 2.85 ± 0.074 |
| DIPELSFFHQSNMQKSL [RPN3] | 2.56 ± 0.065 |
| DIRDSSCQGNVIYRNSL [YMR129W/POM152] | 3.5 ± 0.22 |
| DISGTMSGGGNHVAKGL [SMC4] | 3.19 ± 0.2 |
| DIYSHEYKVITSLQGTY [YMR129W/POM152] | 1.89 ± 0.064 |
| DKGLLPYAIMETANEIL [RPO31] | 2.95 ± 0.14 |
| DKKEMTIYNNIREGQNQ [SIR3] | 3.21 ± 0.056 |
